Biological target: T1, recombinant human XAB2 (Homo sapiens, UniProt Q9HCS7 1-855)
T1 sequence: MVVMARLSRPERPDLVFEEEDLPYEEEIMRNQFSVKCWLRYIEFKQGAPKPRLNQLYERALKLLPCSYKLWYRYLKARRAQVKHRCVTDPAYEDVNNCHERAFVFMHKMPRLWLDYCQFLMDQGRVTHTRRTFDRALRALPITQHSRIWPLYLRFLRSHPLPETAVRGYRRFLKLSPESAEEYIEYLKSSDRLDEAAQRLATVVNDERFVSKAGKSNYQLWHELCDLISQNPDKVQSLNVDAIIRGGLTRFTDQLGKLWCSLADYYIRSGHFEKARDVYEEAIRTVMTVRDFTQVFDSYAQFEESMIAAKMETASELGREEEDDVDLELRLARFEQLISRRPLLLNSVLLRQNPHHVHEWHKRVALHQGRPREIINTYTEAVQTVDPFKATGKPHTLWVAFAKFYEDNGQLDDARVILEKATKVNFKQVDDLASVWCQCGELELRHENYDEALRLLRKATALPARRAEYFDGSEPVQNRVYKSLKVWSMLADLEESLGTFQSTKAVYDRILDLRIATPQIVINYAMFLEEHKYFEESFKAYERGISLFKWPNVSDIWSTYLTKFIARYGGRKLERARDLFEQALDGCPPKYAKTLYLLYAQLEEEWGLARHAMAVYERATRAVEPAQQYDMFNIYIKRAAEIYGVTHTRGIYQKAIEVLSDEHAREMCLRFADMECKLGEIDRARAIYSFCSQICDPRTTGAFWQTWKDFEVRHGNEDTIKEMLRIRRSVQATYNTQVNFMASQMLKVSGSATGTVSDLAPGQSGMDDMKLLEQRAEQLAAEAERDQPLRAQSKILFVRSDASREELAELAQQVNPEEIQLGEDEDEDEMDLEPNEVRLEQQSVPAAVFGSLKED
Experiment: EMSA; 0.1-10 nmol protein, 100 pmol RNA; no consumption of RNA oligo; 10 mM Tris-HCl pH 8.0, 50 mM KCl, 10% glycerol, 0.5 mM EDTA, 0.5 mM DTT, 1 ug/ml BSA, 6 mM MgCl2, 30 min at 4 C, 10 ul, 100 pmol RNA; 4% native PAGE in 0.5x TBE pH 7.5
Details: protein: commercial; label: 5' biotin; single strand

Q: Does AUUGGAACGAUACAGAGAAGAU (ssRNA) [XAB2RBS] bind?
A: no binding

Source: article PMC8155215, “The splicing factor XAB2 interacts with ERCC1-XPF and XPG for R-loop processing”
